Data on four molecules can be found in publication PMC10873366, “DNA binding redistributes activation domain ensemble and accessibility in pioneer factor Sox2”.

Series [1] concerns the target Sox2 DBD labelled at 37 and 120 (UniProt P48431 37-120, S37C;M120C). The experiment in a line: smFRET titration; 200 mM salt; labelled protein; smFRET: 165 mM KCl or 200 mM salt (Supplementary Table 4), buffer details not in material; NMR: 20 mM NaH2PO4, 50 mM NaCl, 5 mM DTT, pH 5.5, 15 C. The note with it: protein: recombinant; tags: His6-SUMO removed by ULP1; blunt.

For series [2], the target named is T1, Sox2 DBD, isolated, unlabelled (UniProt P48431 37-120). The experiment in a line: smFRET titration; 200 mM salt; smFRET: 165 mM KCl or 200 mM salt (Supplementary Table 4), buffer details not in material; NMR: 20 mM NaH2PO4, 50 mM NaCl, 5 mM DTT, pH 5.5, 15 C. The note with it: protein: recombinant; tags: His6-SUMO removed by ULP1; label: Cy3B and CF660R, one on each 5' end; blunt.

The target in series [3] is T2, Sox2 full-length, unlabelled (UniProt P48431 1-317). Described as above. As to conditions: protein: recombinant; tags: His6-SUMO removed by ULP1; label: Cy3B and CF660R, one on each 5' end; blunt.
In series [4] the target is Sox2 full-length labelled in the C-IDR (UniProt P48431 1-317, M120C;S315C). The series is described as follows: smFRET (C-IDR expands, E 0.43 to 0.28); smFRET: 165 mM KCl or 200 mM salt (Supplementary Table 4), buffer details not in material; NMR: 20 mM NaH2PO4, 50 mM NaCl, 5 mM DTT, pH 5.5, 15 C. The note with it: protein: recombinant; tags: His6-SUMO removed by ULP1; blunt.

Series [5] has as its target T2, Sox2 full-length, unlabelled. The experiment in a line: NMR (1H15N HSQC CSP); 30 uM Sox2, 1.1-fold DNA, 50 mM NaCl, pH 5.5, 15 C; smFRET: 165 mM KCl or 200 mM salt (Supplementary Table 4), buffer details not in material; NMR: 20 mM NaH2PO4, 50 mM NaCl, 5 mM DTT, pH 5.5, 15 C. As to conditions: protein: recombinant; tags: His6-SUMO removed by ULP1; blunt.
The target of series [6] is T1, Sox2 DBD, isolated, unlabelled. The experiment in a line: smFRET titration; 200 mM salt (table; text gives 165 mM KCl); smFRET: 165 mM KCl or 200 mM salt (Supplementary Table 4), buffer details not in material; NMR: 20 mM NaH2PO4, 50 mM NaCl, 5 mM DTT, pH 5.5, 15 C. The note with it: protein: recombinant; tags: His6-SUMO removed by ULP1; label: Cy3B and CF660R, one on each 5' end; blunt.

In series [7] the target is T2, Sox2 full-length, unlabelled. Described as above. The note with it: protein: recombinant; tags: His6-SUMO removed by ULP1; label: Cy3B and CF660R, one on each 5' end; blunt.

T2 sequence (P48431 whole entry): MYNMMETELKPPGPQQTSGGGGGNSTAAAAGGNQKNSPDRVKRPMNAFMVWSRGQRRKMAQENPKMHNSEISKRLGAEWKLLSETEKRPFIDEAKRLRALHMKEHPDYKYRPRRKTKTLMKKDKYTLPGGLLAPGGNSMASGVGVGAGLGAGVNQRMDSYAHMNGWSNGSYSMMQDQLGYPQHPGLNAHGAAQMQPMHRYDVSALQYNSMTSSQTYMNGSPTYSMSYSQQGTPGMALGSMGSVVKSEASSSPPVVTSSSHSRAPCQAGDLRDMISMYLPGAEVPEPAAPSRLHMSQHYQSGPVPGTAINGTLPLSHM
T1 sequence (P48431 37-120): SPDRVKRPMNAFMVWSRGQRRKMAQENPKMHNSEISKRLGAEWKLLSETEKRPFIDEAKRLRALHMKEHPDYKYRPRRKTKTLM
Sequence of Sox2 DBD labelled at 37 and 120 (P48431 37-120 S37C/M120C): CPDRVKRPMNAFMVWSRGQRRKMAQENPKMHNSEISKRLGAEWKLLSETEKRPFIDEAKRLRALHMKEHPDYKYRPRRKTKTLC
Sequence of Sox2 full-length labelled in the C-IDR (P48431 whole entry M120C/S315C): as the sequence (P48431 whole entry) above, with M120C, S315C counted along it

B1: 30 bp specific DNA (dsDNA)
DNA 1: ATCCCATTAGCATCCAAACAAAGAGTTTTC
DNA 2: GAAAACTCTTTGTTTGGATGCTAATGGGAT
By Kd is commonly meant a measure of binding affinity in units of concentration. Regarding B1, the Kd in series [1] turned out to be 0.3 ± 0.2 nM.

B2: 15 bp nonspecific DNA, labelled (dsDNA)
DNA 1: TCTATCTGTGTATGT
DNA 2: ACATACACAGATAGA
modifications: 5' C6-amino linker on both strands
For B2, the Kd in series [2] came to 11 ± 4 nM; in series [3], 6 ± 2 nM.

B3: 15 bp specific DNA, unlabelled (dsDNA)
DNA 1: ACTCTTTGTTTGGAT
DNA 2: ATCCAAACAAAGAGT
B3: the binding result in series [4] and in series [5] was “binds” throughout.

B4: 15 bp specific DNA, labelled (dsDNA)
DNA 1: ACTCTTTGTTTGGAT
DNA 2: ATCCAAACAAAGAGT
modifications: 5' C6-amino linker on both strands
In the case of B4, the dissociation constant (Kd) in series [6] came to 0.3 ± 0.1 nM; in series [7], 0.4 ± 0.2 nM.
